This note sets out measurements from patent US20150359907A1 (GENISPHERE, published 2015).

Ends that are not written are not given here.

This assay concerns the target T1, transferrin receptor (TfR/CD71) on TfR-expressing LAPC-4 cells (human, UniProt P02786 1-760).
T1 construct: whole, on cells
Description: binding of dendrimer to cells in vitro; method not detailed.

T1 sequence (P02786 whole entry): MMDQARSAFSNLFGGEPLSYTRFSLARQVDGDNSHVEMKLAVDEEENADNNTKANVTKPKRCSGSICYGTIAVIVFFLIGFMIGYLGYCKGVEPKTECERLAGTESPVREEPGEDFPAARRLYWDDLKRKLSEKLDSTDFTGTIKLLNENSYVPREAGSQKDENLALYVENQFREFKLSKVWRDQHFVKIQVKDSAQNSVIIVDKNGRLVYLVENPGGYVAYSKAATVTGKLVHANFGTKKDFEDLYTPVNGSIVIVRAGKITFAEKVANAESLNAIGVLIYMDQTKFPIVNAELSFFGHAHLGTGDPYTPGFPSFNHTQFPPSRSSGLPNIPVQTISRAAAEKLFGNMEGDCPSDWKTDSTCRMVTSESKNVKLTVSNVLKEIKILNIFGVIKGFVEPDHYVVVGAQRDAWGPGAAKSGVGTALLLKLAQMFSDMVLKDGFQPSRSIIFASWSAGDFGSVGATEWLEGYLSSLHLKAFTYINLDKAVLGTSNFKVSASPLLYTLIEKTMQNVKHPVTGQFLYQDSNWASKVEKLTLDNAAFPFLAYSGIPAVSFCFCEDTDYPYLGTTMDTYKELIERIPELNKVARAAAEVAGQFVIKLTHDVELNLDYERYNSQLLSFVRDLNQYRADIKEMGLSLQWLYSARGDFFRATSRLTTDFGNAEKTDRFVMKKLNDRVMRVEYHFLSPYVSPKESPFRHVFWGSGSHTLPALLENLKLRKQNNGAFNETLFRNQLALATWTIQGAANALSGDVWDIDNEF

B1: TfR peptide-derivatized dendrimer (transferrin receptor (TfR/CD71) targeting peptide THRPPMWSPVWP on a 2-layer DNA dendrimer) (peptide)
peptide: THRPPMWSPVWP
modifications: also: coupled to oligonucleotide cplCap03 on a DNA dendrimer, site not given here
notes: The peptide-oligonucleotide conjugate was hybridised to capture oligonucleotides on a Cy3-labelled 2-layer DNA dendrimer carrying a ligated plasmid; About 2-5 peptides per dendrimer molecule; The protein part is only the 12-mer peptide; also called TfR targeting peptide; 2n-Cy3 3DNA-TfR peptide-K5/CFP
Consider B1, for which the binding result is “binds”.
